# Assay results reported in PMC10949841.
# Where “and” joins values, the source holds several entries; their conditions need not be identical. Identical values can stand only once.
# Key:
# [1] = target: HAdV-C5 hexon labeled with AlexaFluor594 (human adenovirus C5 (HAdV-C5)) (UniProt P04133); assay: MST; hexon labeled with AlexaFluor594 at constant amount, 16 concentrations of hLF or hLF mutant (1:1 serial dilution); 20 mM HEPES pH 7.2, 5 mM NaCl, 0.05% Tween 20; 25°C; Monolith NT.115; n = 2
# [2] = target: HAdV-C5 hexon (human adenovirus C5 (HAdV-C5)) (UniProt P04133); assay: single-particle cryo-EM, 2D class averages; freshly purified hexon:hLF complex (1 mg/mL) on Au Quantifoil R1.2/1.3 grids, Talos Arctica; top and bottom views only, no 3D reconstruction; 2D classes used to refine a hybrid model
# Sequence of HAdV-C5 hexon (human adenovirus C5 (HAdV-C5)) (P04133 whole entry): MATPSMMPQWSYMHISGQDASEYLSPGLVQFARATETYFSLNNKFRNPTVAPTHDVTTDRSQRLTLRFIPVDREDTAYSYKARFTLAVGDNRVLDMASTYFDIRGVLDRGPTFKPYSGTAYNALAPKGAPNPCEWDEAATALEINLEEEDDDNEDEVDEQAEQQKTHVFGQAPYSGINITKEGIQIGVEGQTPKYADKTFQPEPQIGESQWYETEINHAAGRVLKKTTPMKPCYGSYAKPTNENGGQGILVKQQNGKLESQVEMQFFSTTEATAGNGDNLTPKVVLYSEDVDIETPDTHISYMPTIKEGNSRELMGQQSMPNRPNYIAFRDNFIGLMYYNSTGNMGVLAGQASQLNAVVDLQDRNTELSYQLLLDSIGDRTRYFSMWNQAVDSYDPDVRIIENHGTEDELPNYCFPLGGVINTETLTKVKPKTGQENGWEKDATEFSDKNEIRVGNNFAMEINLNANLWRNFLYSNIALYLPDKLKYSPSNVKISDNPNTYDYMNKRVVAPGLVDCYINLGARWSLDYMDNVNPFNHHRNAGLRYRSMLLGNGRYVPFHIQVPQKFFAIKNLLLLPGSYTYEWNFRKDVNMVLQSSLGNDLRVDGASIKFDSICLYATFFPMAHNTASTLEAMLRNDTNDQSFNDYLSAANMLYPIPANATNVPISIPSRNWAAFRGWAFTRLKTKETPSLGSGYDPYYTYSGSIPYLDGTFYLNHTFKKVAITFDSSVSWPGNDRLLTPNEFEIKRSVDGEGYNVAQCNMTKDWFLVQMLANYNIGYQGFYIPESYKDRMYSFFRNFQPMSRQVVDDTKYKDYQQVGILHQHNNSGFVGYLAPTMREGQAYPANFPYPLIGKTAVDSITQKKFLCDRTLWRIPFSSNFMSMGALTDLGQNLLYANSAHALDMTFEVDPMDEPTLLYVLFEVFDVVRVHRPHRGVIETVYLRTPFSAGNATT
# [3] = target: HAdV-C5 hexon (human adenovirus C5 (HAdV-C5)) (UniProt P04133); assay: native MS; 0.5 µM hexon:hLF complex purified in buffer D, exchanged into and diluted with 20 mM ammonium acetate pH 7.0; nanoelectrospray, Orbitrap Q Exactive UHMR
# [4] = target: HAdV-C5 hexon (human adenovirus C5 (HAdV-C5)) (UniProt P04133); assay: native MS; 0.5 µM hexon:hLF complex purified in buffer D, exchanged into ammonium acetate pH 7.0 and diluted with water to 5.85 mM ammonium acetate; nanoelectrospray, Orbitrap Q Exactive UHMR
# Sequence of HAdV-C5 hexon labeled with AlexaFluor594 (human adenovirus C5 (HAdV-C5)) (P04133 whole entry): as above
substance,measurement,setting,value
hLF mut5 (R24S/R27A/K28A/R30A) (natural protein),affinity relative to WT hLF,[1],< 20%
hLF mut7 (N673A/S678A) (natural protein),reduction of binding affinity against WT hLF,[1],40%
hLF mut8 (E687A/K691A) (natural protein),reduction of binding affinity against WT hLF,[1],70%
"human lactoferrin (hLF), wild type (natural protein)",stoichiometry N (hLF per hexon trimer),[2],2 and 1
same,stoichiometry N (hLF per hexon trimer),[3],1
same,stoichiometry N (hLF per hexon trimer),[4],1 and 2
